According to patent US20240400654A1:
Where “and” joins values, the source holds several entries; their conditions need not be identical. Equal values may be shown once.

B1: KB001 mouse Fab VH S57M (Fab, V domains shown)
VH: EVQLKQSGPGLVAPSQSLSITCTVSGFSLSIYSVHWVRQPPGKGLEWLGMIWGGGSMDYNSALKSRLSISKDNSKSQVFLKMNSLQTDDTAMYYCARNGNFYAMDYWGQGTSVTVSS
VL: QIVLTQSPAIMSASLGERVTMTCTASSSVSSSFLHWYQQKPGSSPQLWIYSTSNLASGVPARFSGSGSGTSYSLTISSMEAEDAATYYCHQYHHSPYIYTFGGGTKLEIK
B2: KB001 mouse Fab VH S57T (Fab, V domains shown)
VH: EVQLKQSGPGLVAPSQSLSITCTVSGFSLSIYSVHWVRQPPGKGLEWLGMIWGGGSTDYNSALKSRLSISKDNSKSQVFLKMNSLQTDDTAMYYCARNGNFYAMDYWGQGTSVTVSS
VL: QIVLTQSPAIMSASLGERVTMTCTASSSVSSSFLHWYQQKPGSSPQLWIYSTSNLASGVPARFSGSGSGTSYSLTISSMEAEDAATYYCHQYHHSPYIYTFGGGTKLEIK
B3: KB001 mouse Fab VH D58S (Fab, V domains shown)
VH: EVQLKQSGPGLVAPSQSLSITCTVSGFSLSIYSVHWVRQPPGKGLEWLGMIWGGGSSSYNSALKSRLSISKDNSKSQVFLKMNSLQTDDTAMYYCARNGNFYAMDYWGQGTSVTVSS
VL: QIVLTQSPAIMSASLGERVTMTCTASSSVSSSFLHWYQQKPGSSPQLWIYSTSNLASGVPARFSGSGSGTSYSLTISSMEAEDAATYYCHQYHHSPYIYTFGGGTKLEIK
B4: KB001 mouse Fab VH D58G (Fab, V domains shown)
VH: EVQLKQSGPGLVAPSQSLSITCTVSGFSLSIYSVHWVRQPPGKGLEWLGMIWGGGSSGYNSALKSRLSISKDNSKSQVFLKMNSLQTDDTAMYYCARNGNFYAMDYWGQGTSVTVSS
VL: QIVLTQSPAIMSASLGERVTMTCTASSSVSSSFLHWYQQKPGSSPQLWIYSTSNLASGVPARFSGSGSGTSYSLTISSMEAEDAATYYCHQYHHSPYIYTFGGGTKLEIK
B5: KB001 mouse Fab VH Y59K (Fab, V domains shown)
VH: EVQLKQSGPGLVAPSQSLSITCTVSGFSLSIYSVHWVRQPPGKGLEWLGMIWGGGSSDKNSALKSRLSISKDNSKSQVFLKMNSLQTDDTAMYYCARNGNFYAMDYWGQGTSVTVSS
VL: QIVLTQSPAIMSASLGERVTMTCTASSSVSSSFLHWYQQKPGSSPQLWIYSTSNLASGVPARFSGSGSGTSYSLTISSMEAEDAATYYCHQYHHSPYIYTFGGGTKLEIK
B6: KB001 mouse Fab VH Y59T (Fab, V domains shown)
VH: EVQLKQSGPGLVAPSQSLSITCTVSGFSLSIYSVHWVRQPPGKGLEWLGMIWGGGSSDTNSALKSRLSISKDNSKSQVFLKMNSLQTDDTAMYYCARNGNFYAMDYWGQGTSVTVSS
VL: QIVLTQSPAIMSASLGERVTMTCTASSSVSSSFLHWYQQKPGSSPQLWIYSTSNLASGVPARFSGSGSGTSYSLTISSMEAEDAATYYCHQYHHSPYIYTFGGGTKLEIK
B7: KB001 mouse Fab VH Y59R (Fab, V domains shown)
VH: EVQLKQSGPGLVAPSQSLSITCTVSGFSLSIYSVHWVRQPPGKGLEWLGMIWGGGSSDRNSALKSRLSISKDNSKSQVFLKMNSLQTDDTAMYYCARNGNFYAMDYWGQGTSVTVSS
VL: QIVLTQSPAIMSASLGERVTMTCTASSSVSSSFLHWYQQKPGSSPQLWIYSTSNLASGVPARFSGSGSGTSYSLTISSMEAEDAATYYCHQYHHSPYIYTFGGGTKLEIK
B8: KB001 mouse Fab VH Y59M/S57I (Fab, V domains shown)
VH: EVQLKQSGPGLVAPSQSLSITCTVSGFSLSIYSVHWVRQPPGKGLEWLGMIWGGGSIDMNSALKSRLSISKDNSKSQVFLKMNSLQTDDTAMYYCARNGNFYAMDYWGQGTSVTVSS
VL: QIVLTQSPAIMSASLGERVTMTCTASSSVSSSFLHWYQQKPGSSPQLWIYSTSNLASGVPARFSGSGSGTSYSLTISSMEAEDAATYYCHQYHHSPYIYTFGGGTKLEIK
B9: KB001 mouse Fab VH Y59F (Fab, V domains shown)
VH: EVQLKQSGPGLVAPSQSLSITCTVSGFSLSIYSVHWVRQPPGKGLEWLGMIWGGGSSDFNSALKSRLSISKDNSKSQVFLKMNSLQTDDTAMYYCARNGNFYAMDYWGQGTSVTVSS
VL: QIVLTQSPAIMSASLGERVTMTCTASSSVSSSFLHWYQQKPGSSPQLWIYSTSNLASGVPARFSGSGSGTSYSLTISSMEAEDAATYYCHQYHHSPYIYTFGGGTKLEIK
B10: KB001 mouse Fab VH N60S (Fab, V domains shown)
VH: EVQLKQSGPGLVAPSQSLSITCTVSGFSLSIYSVHWVRQPPGKGLEWLGMIWGGGSSDYSSALKSRLSISKDNSKSQVFLKMNSLQTDDTAMYYCARNGNFYAMDYWGQGTSVTVSS
VL: QIVLTQSPAIMSASLGERVTMTCTASSSVSSSFLHWYQQKPGSSPQLWIYSTSNLASGVPARFSGSGSGTSYSLTISSMEAEDAATYYCHQYHHSPYIYTFGGGTKLEIK
B11: KB001 mouse Fab VH N60P (Fab, V domains shown)
VH: EVQLKQSGPGLVAPSQSLSITCTVSGFSLSIYSVHWVRQPPGKGLEWLGMIWGGGSSDYPSALKSRLSISKDNSKSQVFLKMNSLQTDDTAMYYCARNGNFYAMDYWGQGTSVTVSS
VL: QIVLTQSPAIMSASLGERVTMTCTASSSVSSSFLHWYQQKPGSSPQLWIYSTSNLASGVPARFSGSGSGTSYSLTISSMEAEDAATYYCHQYHHSPYIYTFGGGTKLEIK
B12: KB001 mouse Fab VH N60T (Fab, V domains shown)
VH: EVQLKQSGPGLVAPSQSLSITCTVSGFSLSIYSVHWVRQPPGKGLEWLGMIWGGGSSDYTSALKSRLSISKDNSKSQVFLKMNSLQTDDTAMYYCARNGNFYAMDYWGQGTSVTVSS
VL: QIVLTQSPAIMSASLGERVTMTCTASSSVSSSFLHWYQQKPGSSPQLWIYSTSNLASGVPARFSGSGSGTSYSLTISSMEAEDAATYYCHQYHHSPYIYTFGGGTKLEIK
B13: KB001 mouse Fab VH N60Q (Fab, V domains shown)
VH: EVQLKQSGPGLVAPSQSLSITCTVSGFSLSIYSVHWVRQPPGKGLEWLGMIWGGGSSDYQSALKSRLSISKDNSKSQVFLKMNSLQTDDTAMYYCARNGNFYAMDYWGQGTSVTVSS
VL: QIVLTQSPAIMSASLGERVTMTCTASSSVSSSFLHWYQQKPGSSPQLWIYSTSNLASGVPARFSGSGSGTSYSLTISSMEAEDAATYYCHQYHHSPYIYTFGGGTKLEIK
B14: KB001 mouse Fab VH S61W (Fab, V domains shown)
VH: EVQLKQSGPGLVAPSQSLSITCTVSGFSLSIYSVHWVRQPPGKGLEWLGMIWGGGSSDYNWALKSRLSISKDNSKSQVFLKMNSLQTDDTAMYYCARNGNFYAMDYWGQGTSVTVSS
VL: QIVLTQSPAIMSASLGERVTMTCTASSSVSSSFLHWYQQKPGSSPQLWIYSTSNLASGVPARFSGSGSGTSYSLTISSMEAEDAATYYCHQYHHSPYIYTFGGGTKLEIK
B15: KB001 mouse Fab VH S61Y (Fab, V domains shown)
VH: EVQLKQSGPGLVAPSQSLSITCTVSGFSLSIYSVHWVRQPPGKGLEWLGMIWGGGSSDYNYALKSRLSISKDNSKSQVFLKMNSLQTDDTAMYYCARNGNFYAMDYWGQGTSVTVSS
VL: QIVLTQSPAIMSASLGERVTMTCTASSSVSSSFLHWYQQKPGSSPQLWIYSTSNLASGVPARFSGSGSGTSYSLTISSMEAEDAATYYCHQYHHSPYIYTFGGGTKLEIK
B16: KB001 mouse Fab VH S61R (Fab, V domains shown)
VH: EVQLKQSGPGLVAPSQSLSITCTVSGFSLSIYSVHWVRQPPGKGLEWLGMIWGGGSSDYNRALKSRLSISKDNSKSQVFLKMNSLQTDDTAMYYCARNGNFYAMDYWGQGTSVTVSS
VL: QIVLTQSPAIMSASLGERVTMTCTASSSVSSSFLHWYQQKPGSSPQLWIYSTSNLASGVPARFSGSGSGTSYSLTISSMEAEDAATYYCHQYHHSPYIYTFGGGTKLEIK
B17: KB001 mouse Fab VH S61G (Fab, V domains shown)
VH: EVQLKQSGPGLVAPSQSLSITCTVSGFSLSIYSVHWVRQPPGKGLEWLGMIWGGGSSDYNGALKSRLSISKDNSKSQVFLKMNSLQTDDTAMYYCARNGNFYAMDYWGQGTSVTVSS
VL: QIVLTQSPAIMSASLGERVTMTCTASSSVSSSFLHWYQQKPGSSPQLWIYSTSNLASGVPARFSGSGSGTSYSLTISSMEAEDAATYYCHQYHHSPYIYTFGGGTKLEIK
B18: KB001 mouse Fab VH S61F (Fab, V domains shown)
VH: EVQLKQSGPGLVAPSQSLSITCTVSGFSLSIYSVHWVRQPPGKGLEWLGMIWGGGSSDYNFALKSRLSISKDNSKSQVFLKMNSLQTDDTAMYYCARNGNFYAMDYWGQGTSVTVSS
VL: QIVLTQSPAIMSASLGERVTMTCTASSSVSSSFLHWYQQKPGSSPQLWIYSTSNLASGVPARFSGSGSGTSYSLTISSMEAEDAATYYCHQYHHSPYIYTFGGGTKLEIK
B19: KB001 mouse Fab VH S61M (Fab, V domains shown)
VH: EVQLKQSGPGLVAPSQSLSITCTVSGFSLSIYSVHWVRQPPGKGLEWLGMIWGGGSSDYNMALKSRLSISKDNSKSQVFLKMNSLQTDDTAMYYCARNGNFYAMDYWGQGTSVTVSS
VL: QIVLTQSPAIMSASLGERVTMTCTASSSVSSSFLHWYQQKPGSSPQLWIYSTSNLASGVPARFSGSGSGTSYSLTISSMEAEDAATYYCHQYHHSPYIYTFGGGTKLEIK
B20: KB001 mouse Fab VH S61C (Fab, V domains shown)
VH: EVQLKQSGPGLVAPSQSLSITCTVSGFSLSIYSVHWVRQPPGKGLEWLGMIWGGGSSDYNCALKSRLSISKDNSKSQVFLKMNSLQTDDTAMYYCARNGNFYAMDYWGQGTSVTVSS
VL: QIVLTQSPAIMSASLGERVTMTCTASSSVSSSFLHWYQQKPGSSPQLWIYSTSNLASGVPARFSGSGSGTSYSLTISSMEAEDAATYYCHQYHHSPYIYTFGGGTKLEIK
B21: KB001 mouse Fab VH S61K (Fab, V domains shown)
VH: EVQLKQSGPGLVAPSQSLSITCTVSGFSLSIYSVHWVRQPPGKGLEWLGMIWGGGSSDYNKALKSRLSISKDNSKSQVFLKMNSLQTDDTAMYYCARNGNFYAMDYWGQGTSVTVSS
VL: QIVLTQSPAIMSASLGERVTMTCTASSSVSSSFLHWYQQKPGSSPQLWIYSTSNLASGVPARFSGSGSGTSYSLTISSMEAEDAATYYCHQYHHSPYIYTFGGGTKLEIK

Biological target: HRgpA-6H (Porphyromonas gingivalis) (UniProt P28784)
UniProt P28784, sequence (P28784 228-860 limits assumed): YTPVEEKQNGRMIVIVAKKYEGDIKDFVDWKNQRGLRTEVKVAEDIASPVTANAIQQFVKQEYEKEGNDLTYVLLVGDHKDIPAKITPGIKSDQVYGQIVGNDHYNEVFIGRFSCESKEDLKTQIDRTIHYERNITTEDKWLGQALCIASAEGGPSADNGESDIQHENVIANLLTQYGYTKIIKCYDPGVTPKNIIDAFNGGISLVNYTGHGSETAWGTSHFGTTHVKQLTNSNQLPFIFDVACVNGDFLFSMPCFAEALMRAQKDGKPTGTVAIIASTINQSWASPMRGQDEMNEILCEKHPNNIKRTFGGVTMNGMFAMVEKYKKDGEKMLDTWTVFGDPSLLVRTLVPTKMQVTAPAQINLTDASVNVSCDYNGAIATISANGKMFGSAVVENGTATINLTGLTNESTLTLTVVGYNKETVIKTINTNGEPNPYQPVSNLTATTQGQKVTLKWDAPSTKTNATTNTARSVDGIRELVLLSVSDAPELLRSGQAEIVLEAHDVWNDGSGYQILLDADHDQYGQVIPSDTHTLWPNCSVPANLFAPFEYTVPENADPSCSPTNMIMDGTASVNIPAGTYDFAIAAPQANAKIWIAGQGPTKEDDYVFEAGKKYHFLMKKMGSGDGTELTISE
Experiment: ELISA, coated HRgpA-6H

Binder | OD450 nm | Ratio OD(Variant)/OD(WT)
B1 | 0.748 | 0.85
B2 | 0.843 and 0.849 | 0.958 and 0.965
B3 | 0.646 | 0.817
B4 | 0.778 | 0.984
B5 | 0.648 | 0.819
B6 | 0.744 | 0.941
B7 | 0.633 | 0.8
B8 | 0.701 | 0.886
B9 | 0.668 | 0.845
B10 | 0.452 | 0.916
B11 | 0.44 and 0.428 | 0.892 and 0.867
B12 | 0.406 | 0.823
B13 | 0.447 and 0.402 | 0.906 and 0.815
B14 | 0.435 and 0.429 | 0.881 and 0.869
B15 | 0.423 | 0.857
B16 | 0.438 | 0.888
B17 | 0.46 and 0.476 | 0.932 and 0.965
B18 | 0.432 and 0.473 | 0.875 and 0.958
B19 | 0.493 and 0.479 | 0.999 and 0.971
B20 | 0.431 | 0.873
B21 | 0.49 | 0.993
